Experiment [1] has as its target T1, GST fusion protein containing human Mpl MG3 (Gln26 to Ala189) (human, UniProt P40238 26-189).
T1 construct: As MG1; not shown: glutathione-S-transferase of vector pGEX-4T-3 (Amersham Biosciences)
T1 sequence: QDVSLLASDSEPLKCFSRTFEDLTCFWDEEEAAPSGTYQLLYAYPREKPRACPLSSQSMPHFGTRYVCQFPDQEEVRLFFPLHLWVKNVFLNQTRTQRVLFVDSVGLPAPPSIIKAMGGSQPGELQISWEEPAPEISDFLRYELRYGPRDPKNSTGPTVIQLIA
Kind of experiment: Western blotting of GST fusion protein. As to the method:
(§1) Since the anti-human Mpl antibody VB22B can be used for Western blotting, a GST-fusion protein containing a partial sequence of human Mpl was constructed for VB22B epitope analysis. MG1 (Gln26 to Trp491) and MG2 (Gln26 to Leu274) regions were each amplified by PCR, and cloned into pGEX-4T-3 (Amersham Biosciences) to be expressed as GST fusion proteins. The resulting plasmid DNAs were transformed into DH5α to give transformants. A final concentration of 1 mM IPTG was added to the transformants in their logarithmic growth phase to induce the expression of GST fusion proteins. The bacterial cells were harvested after two hours of incubation. The cells were lysed by sonication. The lysates were centrifuged in XL-80 Ultracentrifuge (Beckman, Rotor 70.1Ti) at 35,000 rpm for 30 min. The culture supernatants were removed, and then the fusion proteins were purified using GST Purification Modules (Amersham Biosciences). The samples were separated by 10%-SDS-PAGE, and then transferred onto a PVDF membrane. The membrane was analyzed by the murine antibody VB22B in Western Btotting.
(§2) Then, GST fusion proteins containing the respective regions of human Mpl: MG3 (Gln26 to Ala189), MG4 (Gln26 to Pro106), MG5 (Gln26 to Glu259), and MG6 (Gln26 to Gly245) were prepared and analyzed by Western blotting using the same procedure described above. […] In addition, GST was fused with MG7 (Gln26 to Ala231) and MG8 (Gln26 to Pro217) to prepare GST fusion proteins.
In general terms: Immunoblotting shows a protein as a band on a membrane.

The target of experiment [2] is T2, GST fusion protein containing human Mpl MG8 (Gln26 to Pro217) (human, UniProt P40238 26-217).
T2 construct: As MG1; not shown: glutathione-S-transferase of vector pGEX-4T-3 (Amersham Biosciences)
T2 sequence: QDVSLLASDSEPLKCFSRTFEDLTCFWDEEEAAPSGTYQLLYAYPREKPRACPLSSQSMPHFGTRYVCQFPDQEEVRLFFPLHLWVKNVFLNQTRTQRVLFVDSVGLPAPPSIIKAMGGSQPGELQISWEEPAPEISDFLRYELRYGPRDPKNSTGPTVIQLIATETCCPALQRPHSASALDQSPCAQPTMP
In words: Western blotting of GST fusion protein. As for the experimental part:
as §1, §2

Experiment [3] deals with T3, GST fusion protein containing human Mpl MG4 (Gln26 to Pro106) (human, UniProt P40238 26-106).
T3 construct: As MG1; not shown: glutathione-S-transferase of vector pGEX-4T-3 (Amersham Biosciences)
T3 sequence: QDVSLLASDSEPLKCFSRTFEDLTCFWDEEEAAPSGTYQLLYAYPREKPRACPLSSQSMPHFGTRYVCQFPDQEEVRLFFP
In words: Western blotting of GST fusion protein. As to the method:
as §1, §2

For experiment [4], the target named is T4, MG10 (Gln213 to Ala231)-GST fusion protein (human, also: fused with GST).
T4 construct: As MG1; also called MG10-GST fusion protein; GST fusion protein containing MG10; not shown: glutathione-S-transferase of vector pGEX-4T-3 (Amersham Biosciences)
T4 chain: QPTMPWQDGPKQTSPSREA
In words: SPR, Biacore 3000, MG10-GST immobilized on CM5, Bivalent analyte model (constants as for the monovalent antibody), triplicate. As for the experimental part:
The Sensor Chip CM5 (Biacore) was placed in Biacore 3000 (Biacore), and MG10-GST fusion protein was immobilized onto the chip by amine-coupling methods. HBS-EP Buffer (Biacore) was used as the running buffer, and the flow rate was 20 μL/min. 5.5 to 175.0 nM of VB22B IgG solution was prepared using HBS-EP Buffer, and injected over each of the chip surfaces for 2 min to obtain the binding region at the respective concentrations. Then, dissociation region for the 2 minutes was measured. VB22B IgG bound to the MG10-GST fusion protein on the sensor chip was removed by injecting 20 mM HCl over the sensor chip for 1 min, and the chip was recovered. Similarly, 4.7 to 150.1 nM of VB22B sc(Fv)2, 5.3 to 168.9 nM of hVB22B q-wz5 sc(Fv)2, and 4.9 to 156.8 nM of hVB22B u2-wz4 sc(Fv)2 were prepared and injected over the chip surfaces onto which MG10-GST fusion protein was immobilized, and the measurement was carried out.
All the antibodies used were bivalent antibodies, and thus the sensorgrams at each concentration were obtained in the presence of both monovalent and bivalent bindings. In this context, the reaction rate constant was determined as that for the monovalent antibody by analysis using the Bivalent analyte model of BIAevaluation ver.3.1 software (Biacore). The above analysis was carried out in triplicates for each antibody. The binding rate constant (ka), dissociation rate constant (kd), and dissociation constant (KD) were determined as those for the monovalent antibody by the procedure described above. The constants are indicated below in Table 1.
On the technique in general: SPR reads the build-up and loss of mass on a sensor chip optically.

The target of experiment [5] is T5, cynomolgus monkey Mpl expressed on CHO cells (CHO-monkey Mpl) (cynomolgus monkey, UniProt P40238 26-635 (human entry)).
T5 construct: pCXND3-monkey Mpl-His in CHO-DG44; also called monkey Mpl-His
T5 chain: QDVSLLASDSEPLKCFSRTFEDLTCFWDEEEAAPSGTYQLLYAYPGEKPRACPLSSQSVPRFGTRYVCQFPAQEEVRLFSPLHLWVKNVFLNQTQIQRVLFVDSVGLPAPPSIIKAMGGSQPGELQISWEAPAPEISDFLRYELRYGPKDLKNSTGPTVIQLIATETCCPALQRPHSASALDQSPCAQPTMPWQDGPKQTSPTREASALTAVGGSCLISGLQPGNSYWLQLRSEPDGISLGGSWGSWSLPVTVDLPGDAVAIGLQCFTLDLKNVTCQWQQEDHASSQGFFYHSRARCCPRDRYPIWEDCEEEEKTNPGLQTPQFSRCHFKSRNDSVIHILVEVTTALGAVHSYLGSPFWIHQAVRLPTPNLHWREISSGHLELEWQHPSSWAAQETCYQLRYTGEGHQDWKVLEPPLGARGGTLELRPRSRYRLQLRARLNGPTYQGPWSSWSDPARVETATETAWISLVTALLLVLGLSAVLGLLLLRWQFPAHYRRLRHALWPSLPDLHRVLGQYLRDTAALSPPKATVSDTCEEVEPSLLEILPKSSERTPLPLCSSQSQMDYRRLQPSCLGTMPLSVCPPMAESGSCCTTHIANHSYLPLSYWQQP
In words: flow cytometry on CHO cells. On the technique in general: Flow cytometry measures light scatter and fluorescence of single cells or particles in a stream.

No end group written: not given here.

B1: anti-human Mpl antibody VB22B IgG (antibody, V domains shown)
VH: QVQLQQSGPELVKPGASVKISCKASGYAFTNSWMNWVKQRPGKGLEWIGRIYPGDGETIYNGKFRVKATLTADKSSSTAYMDISSLTSEDSAVYFCARGYDDYSFAYWGQGTLVTVSA
VL: DIVMTQAAPSIPVTPGESVSISCRSSKSLLHSNGNTYLYWFLQRPGQSPQLLIYRMSNLASGVPDRFSGSGSGTAFTLRISRVEAEDVGVYYCMQHIEYPFTFGSGTKLEIK
notes: also called murine antibody VB22B
As for B1, the binding result in experiment [1] was “no binding”; in experiment [2], “no binding”; in experiment [3] it was “no binding”; in experiment [5], “binds”. In experiment [4], this molecule registered a Kd of 11.5 nM. Further, the koff (in general, the rate constant with which the complex falls apart) in experiment [4] amounted to 0.0011 s⁻¹. Further, the kon (commonly the rate constant with which the complex forms) in experiment [4] is 96000 M⁻¹ s⁻¹.

Values taken from patent publication US20060222643A1 (Chugai, published 2006).
